Substitutions are numbered along the chain they refer to.
T1: FcγRIIa R type extracellular domain, His tag (human, UniProt P12318 34-217)
T1 construct: extracellular domain; also called FcgRIIaR
T1 sequence (looked up): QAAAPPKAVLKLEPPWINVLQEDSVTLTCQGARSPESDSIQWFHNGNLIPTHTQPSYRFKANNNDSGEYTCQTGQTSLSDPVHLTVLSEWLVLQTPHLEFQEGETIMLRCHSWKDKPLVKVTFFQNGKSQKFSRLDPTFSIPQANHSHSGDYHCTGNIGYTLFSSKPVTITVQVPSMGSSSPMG

T2: FcγRIIb extracellular domain, His tag (human, UniProt P31994 43-217)
T2 construct: extracellular domain; also called FcgRIIb
T2 sequence (looked up): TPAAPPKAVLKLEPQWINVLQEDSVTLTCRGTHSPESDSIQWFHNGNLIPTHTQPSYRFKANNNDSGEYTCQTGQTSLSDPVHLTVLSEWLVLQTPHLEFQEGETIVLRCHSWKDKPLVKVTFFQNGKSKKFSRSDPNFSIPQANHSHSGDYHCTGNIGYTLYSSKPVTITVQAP

T3: FcγRIIa H type extracellular domain, His tag (human, UniProt P12318 34-217)
T3 construct: extracellular domain; also called FcgRIIaH
T3 sequence (looked up): T1 sequence (looked up) with R134H

B1: IL6R-P726/IL6R-L (antibody, human IgG1, kappa)
heavy: QVQLQESGPGLVKPSETLSLTCAVSGHSISHDHAWSWVRQPPGEGLEWIGFISYSGITNYNPSLQGRVTISRDNSKNTLYLQMNSLRAEDTAVYYCARSLARTTAMDYWGEGTLVTVSSASTKGPSVFPLAPSSKSTSGGTAALGCLVKDYFPEPVTVSWNSGALTSGVHTFPAVLQSSGLYSLSSVVTVPSSSLGTQTYICNVNHKPSNTKVDKKVEPKSCDKTHTCPPCPAPELLGQDSVMLFPPKPKDTLMISRTPEVTCVVVDVSHEDPEVKFNWYVDGVEVHNAKTKPREEQENSTYRVVSVLTVLHQDWLNGKEYKCKVHNKALPHPIEKTISKAKGQPREPQVYTLPPSRDELTKNQVSLTCLVKGFYPSDIAVEWESNGQPENNYKTTPPVLDSDGSFFLYSKLTVDKSRWQQGNVFSCSVMHEALHNHYTQKSLSLSP
light: not shown
B2: IL6R-P727/IL6R-L (antibody, human IgG1, kappa)
heavy: B1 heavy with H270P, H326S
light: not shown
B3: IL6R-P728/IL6R-L (antibody, human IgG1, kappa)
heavy: B1 heavy with L237F, H332A
light: not shown
B4: IL6R-P729/IL6R-L (antibody, human IgG1, kappa)
heavy: B1 heavy with L237F, H270P, H326S, H332A
light: not shown
B5: IL6R-P731/IL6R-L (antibody, human IgG1, kappa)
heavy: B1 heavy with H270P, H332A
light: not shown
B6: IL6R-P732/IL6R-L (antibody, human IgG1, kappa)
heavy: B1 heavy with L237F, Q239G, H270P, H332A
light: not shown
B7: IL6R-P733/IL6R-L (antibody, human IgG1, kappa)
heavy: B1 heavy with L237F, H270P, H332A
light: not shown
B8: IL6R-P734/IL6R-L (antibody, human IgG1, kappa)
heavy: B1 heavy with L237F
light: not shown
B9: IL6R-P735/IL6R-L (antibody, human IgG1, kappa)
heavy: B1 heavy with L237F, H270P, H326S
light: not shown
B10: IL6R-P737/IL6R-L (antibody, human IgG1, kappa)
heavy: B1 heavy with H270P
light: not shown

molecular target: T4, FcγRIIIa V type extracellular domain, His tag (human, UniProt P08637 17-208); assay: SPR, KD ratio
T4 construct: extracellular domain; also called FcgRIIIaV
T4 sequence (P08637 17-208 F176V): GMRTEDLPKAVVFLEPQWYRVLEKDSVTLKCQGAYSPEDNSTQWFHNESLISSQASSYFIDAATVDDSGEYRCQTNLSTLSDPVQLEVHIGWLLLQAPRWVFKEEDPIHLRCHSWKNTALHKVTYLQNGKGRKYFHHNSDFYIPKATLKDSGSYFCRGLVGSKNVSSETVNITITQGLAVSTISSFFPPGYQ

First: B1
Second: B2
The “Relative FcgRIIIaV-binding Activity” value of the first is higher: 0.009 fold of IL6R-G1d/IL6R-L for the first, 0.005 fold of IL6R-G1d/IL6R-L for the second.

First: B3
Second: B4
The “Relative FcgRIIIaV-binding Activity” value of the first is higher: 0.007 fold of IL6R-G1d/IL6R-L for the first, 0.006 fold of IL6R-G1d/IL6R-L for the second.

Going from B5 to B6, the “Relative FcgRIIIaV-binding Activity” value falls from 0.006 fold of IL6R-G1d/IL6R-L to 0.004 fold of IL6R-G1d/IL6R-L.

Compared with B7, B8 is lower in “Relative FcgRIIIaV-binding Activity” value: 0.004 fold of IL6R-G1d/IL6R-L for the first, 0.003 fold of IL6R-G1d/IL6R-L for the second.

B9 and B10 are the same in “Relative FcgRIIIaV-binding Activity” value: 0.005 fold of IL6R-G1d/IL6R-L for the first, 0.005 fold of IL6R-G1d/IL6R-L for the second.

molecular target: T5, FcγRIa extracellular domain, His tag (human, UniProt P12314 16-292); assay: SPR, KD ratio
T5 construct: whole entry named; also called FcgRIa
T5 sequence (P12314 16-292): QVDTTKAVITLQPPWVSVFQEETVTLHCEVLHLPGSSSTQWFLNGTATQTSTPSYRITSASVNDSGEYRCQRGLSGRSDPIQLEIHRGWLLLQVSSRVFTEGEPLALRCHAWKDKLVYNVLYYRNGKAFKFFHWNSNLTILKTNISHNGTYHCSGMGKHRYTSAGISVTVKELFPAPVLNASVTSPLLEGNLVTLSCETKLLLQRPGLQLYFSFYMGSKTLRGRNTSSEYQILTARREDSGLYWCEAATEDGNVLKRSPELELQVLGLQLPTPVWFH

Compared with B1, B2 is lower in “Relative FcgRIa-binding Activity” value: 0.0017 fold of IL6R-G1d/IL6R-L for the first, 0.0014 fold of IL6R-G1d/IL6R-L for the second.

First: B3
Second: B4
The “Relative FcgRIa-binding Activity” value of the first is higher: 0.0006 fold of IL6R-G1d/IL6R-L for the first, 0.0005 fold of IL6R-G1d/IL6R-L for the second.

Compared with B5, B6 is lower in “Relative FcgRIa-binding Activity” value: 0.0049 fold of IL6R-G1d/IL6R-L for the first, 0.0005 fold of IL6R-G1d/IL6R-L for the second.

Compared with B7, B8 is higher in “Relative FcgRIa-binding Activity” value: 0.0001 fold of IL6R-G1d/IL6R-L for the first, 0.0015 fold of IL6R-G1d/IL6R-L for the second.

Going from B9 to B10, the “Relative FcgRIa-binding Activity” value rises from 0.0013 fold of IL6R-G1d/IL6R-L to 0.002 fold of IL6R-G1d/IL6R-L.

molecular target: T1, FcγRIIa R type extracellular domain, …; assay: SPR, KD ratio

First: B1
Second: B2
The “Relative FcgRIIaR-binding Activity” value of the first is higher: 0.019 fold of IL6R-G1d/IL6R-L for the first, 0.012 fold of IL6R-G1d/IL6R-L for the second.

Going from B3 to B4, the “Relative FcgRIIaR-binding Activity” value falls from 0.017 fold of IL6R-G1d/IL6R-L to 0.015 fold of IL6R-G1d/IL6R-L.

First: B5
Second: B6
The “Relative FcgRIIaR-binding Activity” value of the first is lower: 0.012 fold of IL6R-G1d/IL6R-L for the first, 0.017 fold of IL6R-G1d/IL6R-L for the second.

First: B7
Second: B8
The “Relative FcgRIIaR-binding Activity” value of the first is lower: 0.009 fold of IL6R-G1d/IL6R-L for the first, 0.018 fold of IL6R-G1d/IL6R-L for the second.

First: B9
Second: B10
The “Relative FcgRIIaR-binding Activity” value of the first is higher: 0.021 fold of IL6R-G1d/IL6R-L for the first, 0.011 fold of IL6R-G1d/IL6R-L for the second.

molecular target: T2, FcγRIIb extracellular domain, His tag; assay: SPR, KD ratio

Compared with B1, B2 is lower in “Relative FcgRIIb-binding Activity” value: 1.25 fold of IL6R-G1d/IL6R-L for the first, 1.06 fold of IL6R-G1d/IL6R-L for the second.

First: B3
Second: B4
The “Relative FcgRIIb-binding Activity” value of the first is higher: 1.31 fold of IL6R-G1d/IL6R-L for the first, 1.17 fold of IL6R-G1d/IL6R-L for the second.

First: B5
Second: B6
The “Relative FcgRIIb-binding Activity” value of the first is lower: 0.499 fold of IL6R-G1d/IL6R-L for the first, 1.75 fold of IL6R-G1d/IL6R-L for the second.

Compared with B7, B8 is higher in “Relative FcgRIIb-binding Activity” value: 1.09 fold of IL6R-G1d/IL6R-L for the first, 2.07 fold of IL6R-G1d/IL6R-L for the second.

Compared with B9, B10 is lower in “Relative FcgRIIb-binding Activity” value: 2.26 fold of IL6R-G1d/IL6R-L for the first, 0.802 fold of IL6R-G1d/IL6R-L for the second.

molecular target: T3, FcγRIIa H type extracellular domain, …; assay: SPR, KD ratio

First: B1
Second: B2
The “Relative FcgRIIaH-binding Activity” value of the first is higher: 0.016 fold of IL6R-G1d/IL6R-L for the first, 0.007 fold of IL6R-G1d/IL6R-L for the second.

First: B3
Second: B4
The “Relative FcgRIIaH-binding Activity” value of the first is higher: 0.012 fold of IL6R-G1d/IL6R-L for the first, 0.005 fold of IL6R-G1d/IL6R-L for the second.

Compared with B5, B6 is higher in “Relative FcgRIIaH-binding Activity” value: 0.007 fold of IL6R-G1d/IL6R-L for the first, 0.01 fold of IL6R-G1d/IL6R-L for the second.

Compared with B7, B8 is higher in “Relative FcgRIIaH-binding Activity” value: 0.006 fold of IL6R-G1d/IL6R-L for the first, 0.011 fold of IL6R-G1d/IL6R-L for the second.

First: B9
Second: B10
The “Relative FcgRIIaH-binding Activity” value of the first is higher: 0.007 fold of IL6R-G1d/IL6R-L for the first, 0.006 fold of IL6R-G1d/IL6R-L for the second.

molecular target: T1, FcγRIIa R type extracellular domain, …; assay: SPR, bound amount per captured antibody

First: B1
Second: B2
The “Relative FcgRIIaR-binding Activity” value of the first is higher: 12 % of IL6R-G1d/IL6R-L for the first, 8.3 % of IL6R-G1d/IL6R-L for the second.

Going from B3 to B4, the “Relative FcgRIIaR-binding Activity” value falls from 11 % of IL6R-G1d/IL6R-L to 10 % of IL6R-G1d/IL6R-L.

Compared with B5, B6 is higher in “Relative FcgRIIaR-binding Activity” value: 8.1 % of IL6R-G1d/IL6R-L for the first, 11.9 % of IL6R-G1d/IL6R-L for the second.

Going from B7 to B8, the “Relative FcgRIIaR-binding Activity” value rises from 6.3 % of IL6R-G1d/IL6R-L to 12.5 % of IL6R-G1d/IL6R-L.

Going from B9 to B10, the “Relative FcgRIIaR-binding Activity” value falls from 14.3 % of IL6R-G1d/IL6R-L to 7.2 % of IL6R-G1d/IL6R-L.

molecular target: T2, FcγRIIb extracellular domain, His tag; assay: SPR, bound amount per captured antibody

Going from B1 to B2, the “Relative FcgRIIb-binding Activity” value falls from 123 % of IL6R-G1d/IL6R-L to 108 % of IL6R-G1d/IL6R-L.

Going from B3 to B4, the “Relative FcgRIIb-binding Activity” value rises from 126 % of IL6R-G1d/IL6R-L to 127 % of IL6R-G1d/IL6R-L.

Going from B5 to B6, the “Relative FcgRIIb-binding Activity” value rises from 85.8 % of IL6R-G1d/IL6R-L to 165 % of IL6R-G1d/IL6R-L.

First: B7
Second: B8
The “Relative FcgRIIb-binding Activity” value of the first is lower: 104 % of IL6R-G1d/IL6R-L for the first, 169 % of IL6R-G1d/IL6R-L for the second.

Going from B9 to B10, the “Relative FcgRIIb-binding Activity” value falls from 173 % of IL6R-G1d/IL6R-L to 99.5 % of IL6R-G1d/IL6R-L.
